One block for each binder: values may come before it.
Tests used:
Csm2;Psy3 [1] = target: T1, Csm2;Psy3 (Saccharomyces cerevisiae;Saccharomyces …, UniProt P40465;Q12318 1-213;1-242, |); experiment: fluorescence anisotropy
T1 sequence 1: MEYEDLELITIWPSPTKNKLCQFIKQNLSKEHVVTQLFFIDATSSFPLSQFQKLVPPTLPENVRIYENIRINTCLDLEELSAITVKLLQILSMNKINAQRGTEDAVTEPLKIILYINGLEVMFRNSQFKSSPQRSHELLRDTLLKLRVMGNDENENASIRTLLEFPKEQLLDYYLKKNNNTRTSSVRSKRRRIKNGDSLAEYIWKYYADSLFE
T1 sequence 2: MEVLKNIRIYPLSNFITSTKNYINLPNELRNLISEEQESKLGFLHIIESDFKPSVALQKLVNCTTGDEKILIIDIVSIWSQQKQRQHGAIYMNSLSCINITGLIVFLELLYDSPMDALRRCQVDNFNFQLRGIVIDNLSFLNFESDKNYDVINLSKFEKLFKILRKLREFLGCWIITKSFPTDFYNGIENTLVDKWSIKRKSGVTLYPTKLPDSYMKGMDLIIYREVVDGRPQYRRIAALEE

Csm2;Psy3 [2] = target: T1, Csm2;Psy3; experiment: competition
Psy3 = target: T2, Psy3 (S. cerevisiae, UniProt Q12318 1-242); experiment: SEC
T2 sequence: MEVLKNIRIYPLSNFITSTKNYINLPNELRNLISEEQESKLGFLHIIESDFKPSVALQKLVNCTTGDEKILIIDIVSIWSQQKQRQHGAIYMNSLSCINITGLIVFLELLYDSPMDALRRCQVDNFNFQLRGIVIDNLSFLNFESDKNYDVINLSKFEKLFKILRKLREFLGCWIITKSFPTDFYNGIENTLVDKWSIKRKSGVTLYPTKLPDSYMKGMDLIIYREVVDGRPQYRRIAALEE

B1: fluorescein-labelled fork (mixed)
DNA 1: TTTTTTTTTTTTTTTTTTTTCTTGACAAGCTTGCGCACT
DNA 2: AGTGCGCAAGCTTGTCAAGGCACTTTTTTTTTTTTTTTT
- Kd (Csm2;Psy3 [1]): 361 ± 10.9 nM

B2: 3'-overhang (mixed)
DNA 1: CTGCGAGCTCGAATTCACTGGAGTGACCTC
DNA 2: GAGGTCACTCCAGTGAATTCGAGCTCGCAGTGTCTAGGTCGTGACTTTGA
- binding result (Csm2;Psy3 [2]): binds

- binding result (Psy3): binds
B3: Csm2 (natural protein)
chain: MEYEDLELITIWPSPTKNKLCQFIKQNLSKEHVVTQLFFIDATSSFPLSQFQKLVPPTLPENVRIYENIRINTCLDLEELSAITVKLLQILSMNKINAQRGTEDAVTEPLKIILYINGLEVMFRNSQFKSSPQRSHELLRDTLLKLRVMGNDENENASIRTLLEFPKEQLLDYYLKKNNNTRTSSVRSKRRRIKNGDSLAEYIWKYYADSLFE
